Here are results for one substance from paper PMC1373645, “Lactate production yield from engineered yeasts is dependent from the host background, the lactate dehydrogenase source and the lactate export” (Microbial Cell Factories, 2006).

One may read the Km as the substrate concentration at which the rate is half of its maximum.

The series concerns T1, CC(=O)C(=O)O.
T1 construct: full length, TTG start changed to ATG, untagged, expressed in S. cerevisiae GRF18U; crude cell extract; homotetramer
Briefly: cells, lysate or membranes. It is filed as biochemical, Lactiplantibacillus plantarum. The conditions noted are these: NADH, acetate buffer pH 5.6, 25 °C, no fructose 1,6-diphosphate, Table 2 prints 1,50.

Consider “L. plantarum LDH (LpLDH, plLDH) (Lactiplantibacillus plantarum WCFS1; C302S/H54D)”, for which the Km came out at 1.504 mM.
